B1: Tcur1278 (Thermomonospora curvata DSM 43183) (protein)
chain: ANPYQRGPDPTESLLRAARGPFAVSEQSVSRLSVSGFGGGRIYYPTTTSQGTFGAIAISPGFTASWSSLAWLGPRLASHGFVVIGIETNTRLDQPDSRGRQLLAALDYLTQRSSVRNRVDASRLAVAGHSMGGGGTLEAAKSRTSLKAAIPIAPWNLDKTWPEVRTPTLIIGGELDSIAPVATHSIPFYNSLTNAREKAYLELNNASHFFPQFSNDTMAKFMISWMKRFIDDDTRYDQFLCPPPRAIGDISDYRDTCPHT
notes: mature protein without signal peptide, C-terminal His-tag, codon-optimised synthetic gene, pBAD TOPO, E. coli TOP10, IMAC purified, approx. 35 kDa
B2: Tcur0390 (Thermomonospora curvata DSM 43183) (protein)
chain: ANPYQRGPNPTEASITAARGPFNTAEITVSRLSVSGFGGGKIYYPTTTSEGTFGAIAISPGFTAYWSSLEWLGHRLASQGFVVIGIETNTTLDQPDQRGQQLLAALDYLTQRSAVRDRVDASRLAVAGHSMGGGGSLEAAKARTSLKAAIPLAPWNLDKTWPEVRTPTLIIGGELDAVAPVATHSIPFYNSLSNAPEKAYLELDNASHFFPNITNTQMAKYMIAWMKRFIDDDTRYTQFLCPPPSTGLLSDFSDARFTCPM
notes: as for B1

Legend:
[1] = substrate: CCCC(=O)Oc1ccc([N+](=O)[O-])cc1; assay: esterase assay in microplate, Michaelis-Menten kinetics; assay type: biochemical, Thermomonospora curvata; conditions: 25°C, pH 8.5
Description: esterase assay in microplate, Michaelis-Menten kinetics on Tcur1278

[2] = substrate: CCCC(=O)Oc1ccc([N+](=O)[O-])cc1; assay: as above; assay type: biochemical, Thermomonospora curvata; conditions: 25°C, pH 8.5; remark: listed apart in the source
Description: esterase assay in microplate, Michaelis-Menten kinetics on Tcur0390

Row | Protein | Km [1] [µM] | kcat [1] [s⁻¹] | Km [2] [µM] | kcat [2] [s⁻¹]
1 | B1 | 88.8 ± 12.8 | 2.3 ± 0.1 |  | 
2 | B2 |  |  | 83.1 ± 11.1 | 12.4 ± 0.4

From article PMC4231364, “Functional characterization and structural modeling of synthetic polyester-degrading hydrolases from Thermomonospora curvata” (AMB Express, 2014)
